Substitutions are numbered along the chain they refer to. Names and notes keep the numbering of the source.
B1: D74F, L72A: FABP probe clone, substitutions D74F, L72A vs SEQ ID NO: 2 (protein, listed as Rattus norvegicus)
chain: AFDGTWKVDRNENYEKFMEKMGINVVKRKLGAHDNLKLTITQEGNKFTVKESSNFRNIDVVFELGVDFAYSAAFGTELTGTWTMEGNKLVGKFKRVDNGKELIAVREISGNELIQTYTYEGVEAKRIFKKE
modifications: PEPTIDE (1)...(131) wild-type rat intestinal fatty acid binding protein
B2: R106W, L72A: FABP probe clone, substitutions R106W, L72A vs SEQ ID NO: 2 (protein, listed as Rattus norvegicus)
chain: B1 chain with F74D, R106W
modifications: PEPTIDE (1)...(131) wild-type rat intestinal fatty acid binding protein
B3: L78F, L72A: FABP probe clone, substitutions L78F, L72A vs SEQ ID NO: 2 (protein, listed as Rattus norvegicus)
chain: B1 chain with F74D, L78F
modifications: PEPTIDE (1)...(131) wild-type rat intestinal fatty acid binding protein
B4: L72A: FABP probe clone, substitution L72A vs SEQ ID NO: 2 (protein of ADIFAB2) (protein, listed as Rattus norvegicus)
chain: B1 chain with F74D
modifications: PEPTIDE (1)...(131) wild-type rat intestinal fatty acid binding protein
B5: L72M: FABP probe clone, substitution L72M vs SEQ ID NO: 2 (protein, listed as Rattus norvegicus)
chain: B1 chain with A72M, F74D
modifications: PEPTIDE (1)...(131) wild-type rat intestinal fatty acid binding protein
B6: L72G: FABP probe clone, substitution L72G vs SEQ ID NO: 2 (protein, listed as Rattus norvegicus)
chain: B1 chain with A72G, F74D
modifications: PEPTIDE (1)...(131) wild-type rat intestinal fatty acid binding protein
B7: Y117A, L72A: FABP probe clone, substitutions Y117A, L72A vs SEQ ID NO: 2 (protein, listed as Rattus norvegicus)
chain: B1 chain with F74D, Y117A
modifications: PEPTIDE (1)...(131) wild-type rat intestinal fatty acid binding protein
B8: A73F, L72A: FABP probe clone, substitutions A73F, L72A vs SEQ ID NO: 2 (protein, listed as Rattus norvegicus)
chain: B1 chain with A73F, F74D
modifications: PEPTIDE (1)...(131) wild-type rat intestinal fatty acid binding protein
B9: W82F, L72A: FABP probe clone, substitutions W82F, L72A vs SEQ ID NO: 2 (protein, listed as Rattus norvegicus)
chain: B1 chain with F74D, W82F
modifications: PEPTIDE (1)...(131) wild-type rat intestinal fatty acid binding protein
B10: Y117S, L72A: FABP probe clone, substitutions Y117S, L72A vs SEQ ID NO: 2 (protein, listed as Rattus norvegicus)
chain: B1 chain with F74D, Y117S
modifications: PEPTIDE (1)...(131) wild-type rat intestinal fatty acid binding protein
B11: L1P14A9: FABP probe, substitutions Y14L L72G Y117I vs SEQ ID NO: 2 (protein, listed as Rattus norvegicus)
chain: B1 chain with Y14L, A72G, F74D, Y117I
modifications: PEPTIDE (1)...(131) wild-type rat intestinal fatty acid binding protein
B12: L1P1F7: FABP probe, substitutions Y14L L38M Y117F vs SEQ ID NO: 2 (protein, listed as Rattus norvegicus)
chain: B1 chain with Y14L, L38M, A72L, F74D, Y117F
modifications: PEPTIDE (1)...(131) wild-type rat intestinal fatty acid binding protein
B13: L1P7B11: FABP probe, substitutions Y14I L38I L72V vs SEQ ID NO: 2 (protein, listed as Rattus norvegicus)
chain: B1 chain with Y14I, L38I, A72V, F74D
modifications: PEPTIDE (1)...(131) wild-type rat intestinal fatty acid binding protein
B14: L1P12E11: FABP probe, substitutions Y14L L72W vs SEQ ID NO: 2 (protein, listed as Rattus norvegicus)
chain: B1 chain with Y14L, A72W, F74D
modifications: PEPTIDE (1)...(131) wild-type rat intestinal fatty acid binding protein
B15: L1P12G10: FABP probe, substitution Y14I vs SEQ ID NO: 2 (protein, listed as Rattus norvegicus)
chain: B1 chain with Y14I, A72L, F74D
modifications: PEPTIDE (1)...(131) wild-type rat intestinal fatty acid binding protein
B16: L1P3D6: FABP probe, substitution Y14L vs SEQ ID NO: 2 (protein, listed as Rattus norvegicus)
chain: B1 chain with Y14L, A72L, F74D
modifications: PEPTIDE (1)...(131) wild-type rat intestinal fatty acid binding protein
B17: L1P12F12: FABP probe, substitutions Y14L L72G Y117V vs SEQ ID NO: 2 (protein, listed as Rattus norvegicus)
chain: B1 chain with Y14L, A72G, F74D, Y117V
modifications: PEPTIDE (1)...(131) wild-type rat intestinal fatty acid binding protein
B18: L1P11F12: FABP probe, substitutions Y14L L38I vs SEQ ID NO: 2 (protein, listed as Rattus norvegicus)
chain: B1 chain with Y14L, L38I, A72L, F74D
modifications: PEPTIDE (1)...(131) wild-type rat intestinal fatty acid binding protein
B19: L1P2F7: FABP probe, substitutions Y14I L72G Y117V vs SEQ ID NO: 2 (protein, listed as Rattus norvegicus)
chain: B1 chain with Y14I, A72G, F74D, Y117V
modifications: PEPTIDE (1)...(131) wild-type rat intestinal fatty acid binding protein

Assay: Probe fluorescence ratio response to arachidonic acid relative to ADIFAB2
Format: binding
Conditions: Table 3; Arachidonic acid
Outline: (§1)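 Each fatty acid's response was expressed relative to ADIFAB2, the rI-FABP-L72A probe, as ΔR/ΔRreference. ΔR is the change in the background-corrected two-wavelength intensity ratio R=Fλ1/Fλ2 from its analyte-free baseline R0. Emission was read near about 420-480 nm for unbound and about 495-580 nm for FFA-bound probe.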

| Molecule | DR/DRAD2 AA |
| --- | --- |
| B1 | 0.44 |
| B2 | 1.11 |
| B3 | 2.04 |
| B4 | 1.12 |
| B5 | 1.31 |
| B6 | 0.62 |
| B7 | 1.27 |
| B8 | 1.21 |
| B9 | 0.68 |
| B10 | 1.35 |

Same assay, conditions: Table 4; Arachidonic acid

| Molecule | ΔR/DRAΔ2 AA |
| --- | --- |
| B11 | 0.8 |
| B12 | 0.9 |
| B13 | 0.7 |
| B14 | −0.5 |
| B15 | 0.8 |
| B16 | 0.9 |
| B17 | 0.9 |
| B18 | 1.0 |
| B19 | 0.9 |

Assay: Probe fluorescence ratio response to linolenic acid relative to ADIFAB2
Format: binding
Conditions: Table 3
Outline: as §1

| Molecule | DR/DRAD2 LNA |
| --- | --- |
| B1 | 1.04 |
| B2 | 1.03 |
| B3 | 2.05 |
| B4 | 1.16 |
| B5 | 1.35 |
| B6 | 0.48 |
| B7 | 0.62 |
| B8 | 1.86 |
| B9 | 0.76 |
| B10 | 1.07 |

Same assay, conditions: Table 4

| Molecule | ΔR/DRAΔ2 LNA |
| --- | --- |
| B11 | 0.8 |
| B12 | 1.0 |
| B13 | 0.9 |
| B14 | −0.7 |
| B15 | 1.0 |
| B16 | 0.9 |
| B17 | 0.5 |
| B18 | 1.2 |
| B19 | 0.5 |

Assay: Probe fluorescence ratio response to linoleic acid relative to ADIFAB2
Format: binding
Conditions: Table 3
Outline: as §1

| Molecule | DR/DRAD2 LA |
| --- | --- |
| B1 | 0.67 |
| B2 | 1.04 |
| B3 | 2 |
| B4 | 1.14 |
| B5 | 1.46 |
| B6 | 0.48 |
| B7 | 1.01 |
| B8 | 1.23 |
| B9 | 1.08 |
| B10 | 1.42 |

Same assay, conditions: Table 4

| Molecule | ΔR/DRAΔ2 LA |
| --- | --- |
| B11 | 0.8 |
| B12 | 0.9 |
| B13 | 0.9 |
| B14 | −0.7 |
| B15 | 0.9 |
| B16 | 0.8 |
| B17 | 0.5 |
| B18 | 1.1 |
| B19 | 0.6 |

Assay: Probe fluorescence ratio response to oleic acid relative to ADIFAB2
Format: binding
Conditions: Table 3
Outline: as §1

| Molecule | DR/DRAD2 OA |
| --- | --- |
| B1 | 0.51 |
| B2 | 0.99 |
| B3 | 1.83 |
| B4 | 1.15 |
| B5 | 1.49 |
| B6 | 0.52 |
| B7 | 0.93 |
| B8 | 0.73 |
| B9 | 0.78 |
| B10 | 1.19 |

Same assay, conditions: Table 4

| Molecule | ΔR/DRAΔ2 OA |
| --- | --- |
| B11 | 0.4 |
| B12 | 0.5 |
| B13 | 0.4 |
| B14 | −1.0 |
| B15 | 0.5 |
| B16 | 0.5 |
| B17 | 0.3 |
| B18 | 0.7 |
| B19 | 0.3 |

Assay: Probe fluorescence ratio response to palmitic acid relative to ADIFAB2
Format: binding
Conditions: Table 3
Outline: as §1

| Molecule | DR/DRAD2 PA |
| --- | --- |
| B1 | 0.93 |
| B2 | 0.41 |
| B3 | 0.91 |
| B4 | 1.02 |
| B5 | 1.32 |
| B6 | 0.26 |
| B7 | 0.32 |
| B8 | 1.13 |
| B9 | 0.41 |
| B10 | 0.55 |

Same assay, conditions: Table 4

| Molecule | ΔR/DRAΔ2 PA |
| --- | --- |
| B11 | 0.2 |
| B12 | 0.5 |
| B13 | 0.8 |
| B14 | −0.1 |
| B15 | 0.8 |
| B16 | 0.5 |
| B17 | 0.1 |
| B18 | 0.7 |
| B19 | 0.1 |

Reference: patent US20060257938A1, “Method of screening for drugs that block ligand binding to a lipid binding protein” (priority 2005, published 2006)
